Laboratory results as given in publication doi:10.1101/2024.02.29.582781 (bioRxiv, 2024).

B1: glycerol-3-phosphate dehydrogenase Saci_1118, N-terminally His-tagged (enzyme, Sulfolobus acidocaldarius DSM 639, UniProt Q4J9Q8 1-428, looked up)
chain: MKQNSSVIVIGGGATGLFTALDLSLRGINVTLVERGDIASGTSGKFHGLLHSGARYAVNDPESAKECKQENEVLSKIAPEFVRDTGGVFVGITEDDVNYSQRFLSALNSLGITNKVMDVEELIRREPFINKKSKIAIWVPDKVVYGYDLLATVALTASLNGAKILTYNEVKRVLREGNSVRRVEVKDNISGETKILNGDIIVNTAGPWAFRVIEMAGLGEIPLLPTAGIMVVMKEKLNSMVINRLRPPSDGDIIVPYGDSSIIGTTATIIPDPDNFEISDEDINMLIEEGAYMIPRLKEVKPERAYASVRPLIKNAEDGRGATRDFMIIDHEKVDSLDGLISVIGGKFTTSRLAGEKVSDMVSEKLGIREKSKTATIKLMSELDEKLLEKKRVPKVLVKMIRERKGSLDEDRYSTAMYILLSLLARGE
B2: glycerol kinase Saci_2033 (enzyme, Sulfolobus acidocaldarius DSM 639, UniProt Q4J7A3 1-497, looked up)
chain: MAEKYVIAIDEGTTSARAIVFDKELNILGIGQNEFTQYYPQPGYVEHSPEEIWQAQLLAINKALEKAKIDRNNILSIGITNQRETTVMWDTRTGKPIYNAIVWQDRRTAPITDYLKANYLRLIKDRTGLVPDPYFSASKIKWILDNIPNAREKAEKGEIKFGTIDTYLIWKLTNGKAHVTDYSNASRTMLFNIRKLEWDREILEILNIPEAILPDVKPSSEIYGYAEILNSSIPISGDAGDQQAALFGQIAFNQGDVKCTYGTGSFILLNTGSNLVSSNDLLTTIAWGVGKGITYALEGSIFITGAAVQWFRDGLRAIDVSDEIEPLAGSVPDNGGVYFVPAFTGLGAPYWDPYARGLIIGITRGTTKAHIARAILESMAYQTMDVLGIMQRDSGIKIDALKVDGGASKNDLLMQFQADILKMKVVRPKIMETTSMGVAMLAGLSVGYWNSMDELKQKWKIDQVFEPKMDDEYREKLYSGWKEAVRRALGWAKTIGG
B3: glycerol kinase Saci_1117 (enzyme, Sulfolobus acidocaldarius DSM 639, UniProt Q4J9R1 1-498, looked up)
chain: MSKYILAVDEGTTSARALVFDEDLNVISIAQTELTQYFPRPGYVEQNPEEIFEKQVSMIKKAVEKAKIEISQVSAIGIANQRETTIMWDSRSGRPVYNAVVWQDRRTSDITDWLKSNYLNLFKSKTGLIPDPYFSASKIKWILDNVPGVREKAERGEIKFGTVDTYLIWKLTNGKVHVTDYSNASRTMLFNIKKLEWDRDILEILEIPEAILPEVRSSSEVYGYAEPVGNIPISGDAGDQQAALFGQLGFSKGDVKCTYGTGSFILMNSGEEIYDSKDLLTTIAWKIGKDVKYALEGSIFTTGAAVQWVRDGLGLVSSSDEIESLASSVVDNGGVYFVPAFSGLGSPYWDPYARGLIIGISRGTSRGHIARAVLESIAYQVRDVIEVIKKDVGKEFVNVLKVDGGVSKNNLLMQFQADILGIRIVRPRVIETTSMGASMLAGLAVDYWSSLEELKSKWAVDREFIPSLQEDRRERLYKGWKEAVRRTIGWAREVETME
B4: glycerol-3-phosphate dehydrogenase Saci_2032, N-terminally His-tagged (enzyme, Sulfolobus acidocaldarius DSM 639, UniProt Q4J7A2 1-431, looked up)
chain: MEIKTSVLVIGGGANGLFTALDLALRGIDVTLVERRDIGSGTSGRFHGLLHSGARYAVTDPESAKECIQENNIISKIAPHAIRDTGGLFLGITKEDLEFLDKFLSSLKKLGIEHKIVDNNQVLQEEPYVNKDLKIAIWVPDKVVYGYDLLSSIAVTGSLNKARIMTYNEVTEFIRDGNSIKGVKVFDKITNQMNLIKSDIIINTSGPWAFKIITMAGLEEIPILPTAGIMAVFGKKVNNAVLNRLRPPSDGDIIVPYQDTSILGTTATIIEDPDNFTISDEDVKMLIKEGSQLVPELSKTRVIRTYASVRPLMRTSEDGRKASRDFTILDHEREDGVSGLISIIGGKFTTSRLVGEKVGDLVSEKLGVRAKSKTKETKLISPSEIDFEKYLEKIGISKIFLKSVMERRGSLDEERYKTVLYLLLSLIARGR

Biological target: the molecule itself
Assay: SEC

Row | Protein | stoichiometry N
1 | B1 | 2
2 | B2 | 2
3 | B3 | 2
4 | B4 | 2
